# Laboratory results: patent US20030157522A1, “Methods and reagents for peptide-BIR interaction screens” (priority 2001, published 2003)
# No end group written: not given here.
# Experiments:
# [1] = test system: T24 bladder carcinoma cells; experiment: Sensitization of adriamycin-resistant T24 cells (cell survival); assay type: cell-based; conditions: 10 μg/ml adriamycin alone
# Experimental: FIG. 8 is a schematic illustration showing the effect of a compound identified as being capable of dislodging a HID 7mer from XIAP BIR3 on cell survival of T24 bladder carcinoma cells after 24 hours of exposure to 10 μg/ml adriamycin.
# This is what we would expect from a compound that blocks the ability of IAPs to block caspases once the cell death pathways are activated by a death stimulus such as chemotherapy or radiation. Cancer cells in vivo may also die by the simple addition of the compound if the cancer cell is stressed by oncogene activation, nutrient deprivation, or loss of contact, and the IAPs are blocking caspases from effecting programmed cell death. The compound would be expected to antagonize IAP function and allow caspase activation under these situations.
# [2] = target: T1, XIAP BIR3 (Homo sapiens, UniProt P98170); experiment: Fluorescence polarization HID peptide displacement assay; assay type: binding; conditions: GST BIR3/Ring, fluorescein-HID probe
# T1 construct: as the C-terminal portion of XIAP lacking BIR1 and BIR2, and containing BIR3 and the RING domain to the final C-terminal residue; made in house; host or cells: E. coli
# Description: We developed an assay to screen for compounds capable of competing for the binding of an IAP-interacting peptide and displacing the peptide from its binding groove on BIR3 of XIAP (FIGS. 2-5). The BIR3 domain was produced as a GST fusion protein in E. Coli, as the C-terminal portion of XIAP lacking BIR1 and BIR2, and containing BIR3 and the RING domain to the final C-terminal residue, and purified to greater than 95% purity. Only the properly folded BIR3 domain is required here, and many fusion and purification strategies are available to achieve this.
# The FP assay is based on the following principles: a smaller molecule tumbles more rapidly in solution than a larger one. A tumbling fluor will depolarize plane-polarized light, and any change in tumbling rate due to binding of the peptide to a larger molecule such as XIAP or the displacement of the peptide from XIAP, and therefore any change in fluorescence polarization can be accurately and sensitively measured (FIGS. 2A and 2B). […]
# Assays and High Throughput assays. […] Following overnight incubation at 4° C., the fluorescence polarization was measured using a Polarion plate reader (Tecan, Research Triangle Park, N.C.). […]
# Upon primary screening, hits were re-supplied from Talon Cheminformatics (Acton, ON, Canada) and a new 20 mM drug stock was prepared in 10% DMSO. […] Fluorescence Polarization Units are expressed in MP (FIG. 6).
# [3] = target: T1, XIAP BIR3; conditions: previously shown; cited from earlier work
# T1 sequence (P98170 246-497 limits assumed): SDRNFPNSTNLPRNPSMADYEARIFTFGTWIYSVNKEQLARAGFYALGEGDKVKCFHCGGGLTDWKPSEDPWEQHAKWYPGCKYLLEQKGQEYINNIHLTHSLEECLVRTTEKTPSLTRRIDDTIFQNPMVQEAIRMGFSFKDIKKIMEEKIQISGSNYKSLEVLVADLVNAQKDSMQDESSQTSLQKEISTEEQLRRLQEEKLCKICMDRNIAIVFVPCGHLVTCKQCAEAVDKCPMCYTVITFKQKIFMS
competition with / displacement of fluorescein-labeled HID peptide from XIAP BIR3 ([2]; listed as HID polypeptide),Molecule,cell death with adriamycin on its own [1],competition with / displacement of fluorescein-labeled HID peptide from XIAP BIR3 [2],binding affinity to XIAP BIR3 [3]
–,COc1cccc2c1C(=O)c1c(O)c3c(c(O)c1C2=O)C[C@@](O)(C(=O)CO)C[C@@H]3O[C@H]1C[C@H](N)[C@H](O)[C@H](C)O1 [adriamycin],does not result in any cell death,–,–
can compete with labeled HID polypeptide,"Ala-Val-Pro-Phe-Tyr-Leu-Pro-Gly-Gly (AVPFYLPGG; not fully specified (C-terminus); printed as Ala-Val-Pro-Phe-Tyr-Leu-Pro-Gly-Gly; also: fluorescein label (probe form)) [HID peptide, peptide based on Drosophila HID with Gly-Gly spacer]",–,compete off the fluorescein-labeled peptide,high affinity
